The chains are these.
B1: Protein S100-B, P04271 (parent)
chain: MSELEKAMVALIDVFHQYSGREGDKHKLKKSELKELINNELSHFLEEIKEQEVVDKVMETLDNDGDGECDFQEFMAFVAMVTTACHEFFEHE

The variants in this data set derive from B1. The note with it: Homo sapiens; pH 7.2; 25 °C; GdnHCl; CD; MOPS 10 mM; KCl 50 mM; reversible: yes; structure 1UWO; whole UniProt chain shown.

Values joined by “and” are separate entries in the source; they are usually repeats but may differ in a detail not shown here. Equal entries are not always repeated.

For the variant L4A, the denaturant m value is 3.49 kcal/mol/M and 1.58 kcal/mol/M; the “denaturant midpoint (higher = more stable)” value (“denaturant midpoint” below) is 2.7 M and 3.7 M; the unfolding free energy was determined as 67.4 kJ/mol.
As to L4S, the denaturant m value is 3.3 kcal/mol/M and 2.29 kcal/mol/M; the “denaturant midpoint” value is 2.4 M and 3.2 M; the unfolding free energy amounted to 60.8 kJ/mol.
For I12A, the denaturant m value was 2.75 kcal/mol/M and 1.43 kcal/mol/M; the “denaturant midpoint” value was 2.3 M and 4.2 M; the unfolding free energy stood at 55.2 kJ/mol.
As for L4A F15A, the “ddG of mutation (higher = less stable)” value was 37.4 kJ/mol and 21.6 kJ/mol; the denaturant m value is 1.67 kcal/mol/M and 0.81 kcal/mol/M; the “denaturant midpoint” value is 1.3 M and 1.7 M; the unfolding free energy turned out to be 35.1 kJ/mol.
As to M8A, the “ddG of mutation (higher = less stable)” value was determined as 2.72 kJ/mol, the denaturant m value stood at 1.36 kcal/mol/M and the “denaturant midpoint” value stood at 3.6 M.
With F15A, the “ddG of mutation (higher = less stable)” value is 31.5 kJ/mol and 14.3 kJ/mol; the denaturant m value was 1.94 kcal/mol/M and 1.08 kcal/mol/M; the “denaturant midpoint” value is 1.8 M and 2.3 M; the unfolding free energy was 40.9 kJ/mol.
As for L4A I12A, the denaturant m value was 2.84 kcal/mol/M and 1.77 kcal/mol/M; the “denaturant midpoint” value is 2.1 M and 3.3 M; the unfolding free energy is 51.1 kJ/mol.

These data come from FireProtDB (doi:10.1021/bi0118052).
